According to publication PMC5387315, “Functional and structural studies on the Neisseria gonorrhoeae GmhA, the first enzyme in the glycero‐manno‐heptose biosynthesis pathways, demonstrate a critical role in lipooligosaccharide synthesis and gonococcal viability” (MicrobiologyOpen, 2017):

Target: the molecule itself
Assay: SEC; HiLoad 16/600 Superdex 75 pg, 20 mmol/L Tris-HCl pH 8.0, 500 mmol/L NaCl, 1 ml/min; size by Gel Filtration Standard (Bio-Rad)

B1: recombinant Neisseria gonorrhoeae sedoheptulose-7-phosphate isomerase GmhA, untagged (rGmhAGC) (enzyme, Neisseria gonorrhoeae FA1090, UniProt Q5F5E3 1-197, looked up)
chain: MTTLQERVAAHFAESIRAKQEAEKILVEPTVQAAELMLQCLMNDGKILACGNGGSAADAQHFAAEMTGRFEKERMELAAVALTTDTSALTAIGNDYGFDHVFSKQVRALGRAGDVLVGISTSGNSANVIEAVKAAHERDMHVIALTGRDGGKIAAMLKDTDVLLNVPHPRTARIQENHILLIHAMCDCIDSVLLEGM
notes: GmhA (sedoheptulose-7-phosphate isomerase) of N. gonorrhoeae FA1090, encoded by ngo1986; 197 amino acids, predicted mass 21.093 kDa; ngo1986 amplified without its stop codon and cloned into NcoI/HindIII of pRSF-NT; His tag removed by TEV protease; also called NGO1986; 6 × His-tag-free rGmhAGC; source: E. coli BL21(DE3), purified (IMAC, TEV cleavage, Ni-NTA); not shown: His6, N-terminal, cleaved
In the case of B1, the “stoichiometry N” value is reported as 4.
